# Legend:
# Details in all cases: glycan lost; control: wild-type ASGP-R1 in U87 cells
# [1] = SMN2 exon 7 inclusion RT-PCR, single 30 nM dose
# [2] = Western blot quantification normalised to tubulin
# [3] = SMN2 exon 7 inclusion RT-PCR, 0-30 µM dose response
Protein,other: receptor-mediated GN3-ASO uptake and activity [1],expression_or_secretion [2],"other: receptor-mediated GN3-ASO uptake and activity, fold_change [3]"
ASGP-R1 H1a (asialoglycoprotein receptor 1): N79Q (protein) parent chain: MTKEYQDLQHLDNEESDHHQLRKGPPPPQPLLQRLCSGPRLLLLSLGLSLLLLVVVCVIGSQNSQLQEELRGLRETFSNFTASTEAQVKGLSTQGGNVGRKMKSLESQLEKQQKDLSEDHSSLLLHVKQFVSDLRSLSCQMAALQGNGSERTCCPVNWVEHERSCYWFSRSGKAWADADNYCRLEDAHLVVVTSWEEQKFVQHHIGPVNTWMGLHDQNGPWKWVDGTDYETGFKNWRPEQPDDWYGHGLGGGEDCAHFTDDGRWNDDVCQRPYRWVCETELDKASQEPPLL,no change,no change,no change
ASGP-R1 H1a (asialoglycoprotein receptor 1): N79Q/N147Q (protein) parent chain: MTKEYQDLQHLDNEESDHHQLRKGPPPPQPLLQRLCSGPRLLLLSLGLSLLLLVVVCVIGSQNSQLQEELRGLRETFSNFTASTEAQVKGLSTQGGNVGRKMKSLESQLEKQQKDLSEDHSSLLLHVKQFVSDLRSLSCQMAALQGNGSERTCCPVNWVEHERSCYWFSRSGKAWADADNYCRLEDAHLVVVTSWEEQKFVQHHIGPVNTWMGLHDQNGPWKWVDGTDYETGFKNWRPEQPDDWYGHGLGGGEDCAHFTDDGRWNDDVCQRPYRWVCETELDKASQEPPLL,no change,no change,
ASGP-R1 H1a (asialoglycoprotein receptor 1): N147Q (protein) parent chain: MTKEYQDLQHLDNEESDHHQLRKGPPPPQPLLQRLCSGPRLLLLSLGLSLLLLVVVCVIGSQNSQLQEELRGLRETFSNFTASTEAQVKGLSTQGGNVGRKMKSLESQLEKQQKDLSEDHSSLLLHVKQFVSDLRSLSCQMAALQGNGSERTCCPVNWVEHERSCYWFSRSGKAWADADNYCRLEDAHLVVVTSWEEQKFVQHHIGPVNTWMGLHDQNGPWKWVDGTDYETGFKNWRPEQPDDWYGHGLGGGEDCAHFTDDGRWNDDVCQRPYRWVCETELDKASQEPPLL,no change,no change,no change

# — article PMC6453860
